Experimental data: paper PMC4218953 (2014)

B1: single-labelled SecYEG(Bpy) (complex)
chain 1: MAKQPGLDFQSAKGGLGELKRRLLFVIGALIVFRIGSFIPIPGIDAAVLAKLLEQQRGTIIEMFNMFSGGALSRASIFALGIMPYICASIIIQLLTVVHPTLAEIKKEGESGRRKISQYTRYGTLVLAIFQSIGIATGLPNMPGMQGLVINPGFAFYFTAVVSLVTGTMFLMWLGEQITERGIGNGISIIIFAGIVAGLPPAIAHTIEQARQGDLHFLVLLLVAVLVFAVTFFVVFVERGQRRIVVNYAKRQQGRRVYAAQSTHLPLKVNMAGVIPAIFASSIILFPATIASWFGGGTGWNWLTTISLYLQPGQPLYVLLYASAIIFFCFFYTALVFNPRETADNLKKSGAFVPGIRPGEQTAKYIDKVMTRLTLVGALYITFICLIPEFMRDAMKVPFYFGGTSLLIVVVVIMDFMAQVQTLMMSSQYESALKKANLKGYGR
chain 2: MSANTEAQGSGRGLEAMKWVVVVALLLVAIVGNYLYRDIMLPLRALAVVILIAAAGGVALLTTKGKATVAFAREARTEVRKVIWPTRQETLHTTLIVAAVTAVMSLILWGLDGILVRLVSFITGLRF
chain 3: MYEALLVVFLIVAIGLVGLIMLQQGKGADMGASFGAGASATLFGSSGSGNFMTRMTALLATLFFIISLVLGNINSNKTNKGSEWENLSAPAKTEQTQPAAPAKPTSDIPN
modifications: BODIPY FL (maleimide derivative) on Cys87
B2: double-labelled SecYEG(Bpy/Trp) (complex)
chain 1: MAKQPGLDFQSAKGGLGELKRRLLFVIGALIVFRIGSFIPIPGIDAAVLAKLLEQQRGTIIEMFNMFSGGALSRASIFALGIMPYICASIIIQLLTVVHPTLAEIKKEGESGRRKISQYTRYGTLVLAIFQSIGIATGLPNMPGMQGLVINPGFAFYFTAVVSLVTGTMFLMWLGEQITERGIGNGISIIIFAGIVAGLPPAIAHTIEQARQGDLHFLVLLLVAVLVFAVTFFVVFVERGQRRIVVNYAKRQQGRRVYAAQSTHLPLKVNMAGVIPAIFASSIILWPATIASWFGGGTGWNWLTTISLYLQPGQPLYVLLYASAIIFFCFFYTALVFNPRETADNLKKSGAFVPGIRPGEQTAKYIDKVMTRLTLVGALYITFICLIPEFMRDAMKVPFYFGGTSLLIVVVVIMDFMAQVQTLMMSSQYESALKKANLKGYGR
chain 2: MSANTEAQGSGRGLEAMKWVVVVALLLVAIVGNYLYRDIMLPLRALAVVILIAAAGGVALLTTKGKATVAFAREARTEVRKVIWPTRQETLHTTLIVAAVTAVMSLILWGLDGILVRLVSFITGLRF
chain 3: MYEALLVVFLIVAIGLVGLIMLQQGKGADMGASFGAGASATLFGSSGSGNFMTRMTALLATLFFIISLVLGNINSNKTNKGSEWENLSAPAKTEQTQPAAPAKPTSDIPN
modifications: BODIPY FL (maleimide derivative) on Cys87

Columns and labels:
[1] = target: vacant 70S ribosomes from E. coli MRE600 (E. coli); assay: FRET; 25°C; 70S labelled at L23 with MDCC
[2] = target: vacant 70S ribosomes from E. coli MRE600 (E. coli); assay: FRET; 4°C; 70S labelled at L23 with MDCC
[3] = target: vacant 70S ribosomes from E. coli MRE600 (E. coli); assay: 25°C
[4] = target: Lep75-RNC (ribosome-nascent-chain complex carrying 75 N-terminal amino acids of leader peptidase) (E. coli | , UniProt P00803 1-75, f[3H]Met at the N-terminus; nascent chain bound to tRNA); assay: 25°C

Row | Binder | Kd [1] | Kd [2] | Kd [3] | Kd [4]
1 | B1 | 20 nM | 10 nM |  | 
2 | B2 |  |  | 20 nM | 10 nM
